# Biological target: CDK5RAP2 (human (endogenous in HeLa)) (UniProt Q96SN8)
# Assay: co-IP
# UniProt Q96SN8, sequence (Q96SN8 whole entry): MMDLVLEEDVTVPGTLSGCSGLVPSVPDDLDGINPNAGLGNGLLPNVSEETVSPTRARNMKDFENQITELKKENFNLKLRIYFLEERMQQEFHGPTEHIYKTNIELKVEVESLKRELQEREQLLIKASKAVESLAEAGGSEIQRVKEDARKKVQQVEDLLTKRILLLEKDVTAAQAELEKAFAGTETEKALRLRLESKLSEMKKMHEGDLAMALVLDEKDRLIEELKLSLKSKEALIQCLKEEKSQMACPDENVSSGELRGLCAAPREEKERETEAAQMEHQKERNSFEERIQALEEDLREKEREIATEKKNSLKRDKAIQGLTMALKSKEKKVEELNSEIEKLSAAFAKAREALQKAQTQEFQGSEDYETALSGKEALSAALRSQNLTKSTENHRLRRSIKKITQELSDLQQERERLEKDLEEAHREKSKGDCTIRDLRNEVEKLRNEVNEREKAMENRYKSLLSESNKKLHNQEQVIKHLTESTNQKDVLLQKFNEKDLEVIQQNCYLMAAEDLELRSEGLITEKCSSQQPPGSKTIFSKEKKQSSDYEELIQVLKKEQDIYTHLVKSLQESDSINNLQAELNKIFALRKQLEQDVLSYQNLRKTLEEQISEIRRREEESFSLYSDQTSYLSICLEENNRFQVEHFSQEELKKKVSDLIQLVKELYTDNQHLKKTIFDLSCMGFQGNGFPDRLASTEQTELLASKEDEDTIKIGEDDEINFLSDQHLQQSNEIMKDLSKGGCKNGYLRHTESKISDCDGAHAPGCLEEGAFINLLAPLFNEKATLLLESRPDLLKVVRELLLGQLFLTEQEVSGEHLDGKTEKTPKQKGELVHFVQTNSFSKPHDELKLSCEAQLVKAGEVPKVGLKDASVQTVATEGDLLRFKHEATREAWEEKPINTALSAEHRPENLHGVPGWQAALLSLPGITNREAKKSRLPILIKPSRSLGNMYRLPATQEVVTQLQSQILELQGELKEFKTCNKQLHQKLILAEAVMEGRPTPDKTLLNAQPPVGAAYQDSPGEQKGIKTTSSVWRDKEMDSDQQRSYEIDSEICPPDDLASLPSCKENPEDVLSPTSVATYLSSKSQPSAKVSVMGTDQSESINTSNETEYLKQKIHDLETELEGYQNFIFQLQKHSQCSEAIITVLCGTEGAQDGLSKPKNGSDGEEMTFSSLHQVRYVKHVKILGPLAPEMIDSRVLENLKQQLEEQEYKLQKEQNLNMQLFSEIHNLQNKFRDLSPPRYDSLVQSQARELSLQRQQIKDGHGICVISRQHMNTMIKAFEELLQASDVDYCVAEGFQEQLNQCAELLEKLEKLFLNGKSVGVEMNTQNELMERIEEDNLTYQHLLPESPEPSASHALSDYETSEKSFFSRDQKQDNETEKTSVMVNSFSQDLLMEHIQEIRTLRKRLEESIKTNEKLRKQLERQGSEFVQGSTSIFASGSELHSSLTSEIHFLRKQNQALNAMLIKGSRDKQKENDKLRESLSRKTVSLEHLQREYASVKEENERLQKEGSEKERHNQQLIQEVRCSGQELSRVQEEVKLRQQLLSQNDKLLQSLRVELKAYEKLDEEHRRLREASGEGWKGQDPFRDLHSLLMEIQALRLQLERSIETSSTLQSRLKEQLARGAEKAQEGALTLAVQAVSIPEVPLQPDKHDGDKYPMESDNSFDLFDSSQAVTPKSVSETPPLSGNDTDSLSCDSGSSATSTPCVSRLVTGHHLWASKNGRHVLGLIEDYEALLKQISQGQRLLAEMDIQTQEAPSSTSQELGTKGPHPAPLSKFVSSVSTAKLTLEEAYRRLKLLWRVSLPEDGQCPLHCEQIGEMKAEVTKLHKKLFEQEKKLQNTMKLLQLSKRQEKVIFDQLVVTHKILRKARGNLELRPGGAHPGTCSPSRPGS
substance,measurement,value
"AKAP450, Q99996 1-3907",percent of total AKAP450 co-immunoprecipitated by CDK5RAP2 antibody,40%

# From publication PMC2854379
